# B1: Gua107Thy (dsDNA)
# DNA 1: GGATCGTCTC
# DNA 2: GAGACGATCC
# modifications: 5-methyl-C at position 5 of both strands
# B2: Inverted (dsDNA)
# DNA 1: GGACCGACTC
# DNA 2: GAGTCGGTCC
# modifications: 5-methyl-C at position 5 of both strands
# B3: Thy104Gua (dsDNA)
# DNA 1: GGAGCGGCTC
# DNA 2: GAGCCGCTCC
# modifications: 5-methyl-C at position 5 of both strands
# B4: rho-globin mCpG WT 10 bp (dsDNA)
# DNA 1: GGATCGGCTC
# DNA 2: GAGCCGATCC
# modifications: 5-methyl-C at position 5 of both strands (mC105, mC115)
# Columns and labels:
# Test in all cases: SPR
# cMBD2 MBD WT = cMBD2 MBD WT (Gallus gallus (chicken), UniProt Q5EFL0 2-71)
# cMBD2 MBD K32A = cMBD2 MBD K32A (Gallus gallus (chicken), UniProt Q5EFL0 2-71, K31A)
# cMBD2 MBD R67M = cMBD2 MBD R67M (Gallus gallus (chicken), UniProt Q5EFL0 2-71, R66M)
# cMBD2 MBD Y36F = cMBD2 MBD Y36F (Gallus gallus (chicken), UniProt Q5EFL0 2-71, Y35F)
# cMBD2 MBD K19W = cMBD2 MBD K19W (Gallus gallus (chicken), UniProt Q5EFL0 2-71, K18W)
# cMBD2 MBD R46C = cMBD2 MBD R46C (Gallus gallus (chicken), UniProt Q5EFL0 2-71, R45C)
Binder,Kd (cMBD2 MBD WT) [µM],Kd (cMBD2 MBD K32A) [µM],Kd (cMBD2 MBD R67M) [µM],Kd (cMBD2 MBD Y36F) [µM],Kd (cMBD2 MBD K19W) [µM],Kd (cMBD2 MBD R46C) [µM]
B1,29 ± 2,–,–,–,–,–
B2,2.3 ± 0.5,–,–,–,–,–
B3,2.2 ± 0.1,–,–,–,–,–
B4,2.1 ± 0.1,291 ± 19,197 ± 17,109 ± 3,135 ± 17,590 ± 71
